For assay [1], the target named is Hsp27 GPG (isoleucine and valine of the IPV motif mutated to glycine) (human) (UniProt P04792). Description: ITC; peptide (1 mM) titrated into a cell with Hsp27 proteins (100 µM); SEC buffer (50 mM sodium phosphate, 100 mM NaCl); 25 °C; one-site binding model.
In a further assay the target is Hsp27 ΔNTD GPG (human) (UniProt P04792). The description is as above.

For orientation: Kd means the constant that tells how readily two partners part at equilibrium. Lower therefore signals tighter binding. For orientation: stoichiometry N means a count of units in the complex or per binding partner.

Regarding EITIPVTHE [Hsp27 IPV H peptide (…)], in assay [1], the Kd was 10 µM and the stoichiometry N worked out at 0.2. The molecule also registered a Kd with Hsp27 ΔNTD GPG (human) of 14.3 µM.
